# Source: US20220229068A1, “DETECTION OF PROTEIN TO PROTEIN INTERACTIONS” (THE GOVERNING COUNCIL OF THE UNIVERSITY OF TORONTO, priority 2019, published 2022)
# Columns and labels:
# Experiment in all cases: SIMPL ELISA, bait-IN/prey-CIC
# [1] = target: CRADD (prey, CIC format) (human) (UniProt P78560)
# [2] = target: T1, VAV1 (prey, CIC format) (human) (UniProt P15498)
# T1 sequence (looked up): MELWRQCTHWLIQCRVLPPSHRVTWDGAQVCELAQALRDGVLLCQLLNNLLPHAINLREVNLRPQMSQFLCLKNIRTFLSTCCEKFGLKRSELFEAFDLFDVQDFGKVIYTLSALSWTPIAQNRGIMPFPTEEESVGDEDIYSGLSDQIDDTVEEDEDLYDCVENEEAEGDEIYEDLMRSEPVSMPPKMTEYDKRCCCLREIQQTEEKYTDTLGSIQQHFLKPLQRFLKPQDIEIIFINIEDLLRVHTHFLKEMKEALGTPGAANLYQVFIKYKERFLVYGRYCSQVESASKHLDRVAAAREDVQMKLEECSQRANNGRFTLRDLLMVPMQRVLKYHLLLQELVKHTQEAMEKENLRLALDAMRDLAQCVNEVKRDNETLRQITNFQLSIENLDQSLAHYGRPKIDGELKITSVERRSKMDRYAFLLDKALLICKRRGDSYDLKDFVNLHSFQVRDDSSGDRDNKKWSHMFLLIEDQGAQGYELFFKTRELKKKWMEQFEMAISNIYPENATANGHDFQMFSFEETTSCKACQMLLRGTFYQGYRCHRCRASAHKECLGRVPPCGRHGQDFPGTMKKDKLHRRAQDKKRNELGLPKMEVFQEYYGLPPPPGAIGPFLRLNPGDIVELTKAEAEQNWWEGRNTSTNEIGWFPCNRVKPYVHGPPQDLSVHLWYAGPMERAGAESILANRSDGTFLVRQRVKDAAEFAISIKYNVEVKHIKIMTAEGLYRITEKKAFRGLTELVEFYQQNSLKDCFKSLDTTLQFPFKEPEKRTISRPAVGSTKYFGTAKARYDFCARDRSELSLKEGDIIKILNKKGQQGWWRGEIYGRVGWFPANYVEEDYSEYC
# [3] = target: CD58 (prey, CIC format) (human) (UniProt P19256)
# [4] = target: GTF2F2 (prey, CIC format) (human) (UniProt P13984)
# [5] = target: HGS (prey, CIC format) (human) (UniProt O14964)
# [6] = target: PDGFRB (prey, CIC format) (human) (UniProt P09619)
# [7] = target: UBE2I (prey, CIC format) (human) (UniProt P63279)
# [8] = target: PTK2 (prey, CIC format) (human) (UniProt Q05397)
# [9] = target: S100A7 (prey, CIC format) (human) (UniProt P31151)
# [10] = target: T2, LAT (prey, CIC format) (human) (UniProt O43561)
# T2 sequence (looked up): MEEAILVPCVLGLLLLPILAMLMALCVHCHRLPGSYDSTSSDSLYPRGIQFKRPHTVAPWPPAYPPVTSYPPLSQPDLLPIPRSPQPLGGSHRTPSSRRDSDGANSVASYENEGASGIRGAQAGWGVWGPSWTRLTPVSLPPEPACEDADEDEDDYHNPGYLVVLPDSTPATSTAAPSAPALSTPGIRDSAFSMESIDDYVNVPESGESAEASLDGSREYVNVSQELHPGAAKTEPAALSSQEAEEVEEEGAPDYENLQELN
# [11] = target: T3, PEX3 (prey, CIC format) (human) (UniProt P56589)
# T3 sequence (looked up): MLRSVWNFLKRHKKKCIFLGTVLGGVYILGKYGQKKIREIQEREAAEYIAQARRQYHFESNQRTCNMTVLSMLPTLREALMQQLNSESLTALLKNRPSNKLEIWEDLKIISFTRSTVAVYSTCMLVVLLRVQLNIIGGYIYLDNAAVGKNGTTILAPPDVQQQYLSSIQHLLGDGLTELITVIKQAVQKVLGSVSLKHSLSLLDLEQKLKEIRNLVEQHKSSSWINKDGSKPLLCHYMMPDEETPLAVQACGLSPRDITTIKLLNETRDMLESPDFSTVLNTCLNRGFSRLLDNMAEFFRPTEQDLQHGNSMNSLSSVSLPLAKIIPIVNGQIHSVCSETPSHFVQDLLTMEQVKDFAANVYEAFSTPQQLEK
# [12] = target: NCK1 (prey, CIC format) (human) (UniProt P16333)
# [13] = target: LGALS3BP (prey, CIC format) (human) (UniProt Q08380)
# [14] = target: LSM2 (prey, CIC format) (human) (UniProt Q9Y333)
# [15] = target: FGFR1 (prey, CIC format) (human) (UniProt P11362)
# [16] = target: T4, NRG1 (prey, CIC format) (human) (UniProt Q02297)
# T4 sequence (looked up): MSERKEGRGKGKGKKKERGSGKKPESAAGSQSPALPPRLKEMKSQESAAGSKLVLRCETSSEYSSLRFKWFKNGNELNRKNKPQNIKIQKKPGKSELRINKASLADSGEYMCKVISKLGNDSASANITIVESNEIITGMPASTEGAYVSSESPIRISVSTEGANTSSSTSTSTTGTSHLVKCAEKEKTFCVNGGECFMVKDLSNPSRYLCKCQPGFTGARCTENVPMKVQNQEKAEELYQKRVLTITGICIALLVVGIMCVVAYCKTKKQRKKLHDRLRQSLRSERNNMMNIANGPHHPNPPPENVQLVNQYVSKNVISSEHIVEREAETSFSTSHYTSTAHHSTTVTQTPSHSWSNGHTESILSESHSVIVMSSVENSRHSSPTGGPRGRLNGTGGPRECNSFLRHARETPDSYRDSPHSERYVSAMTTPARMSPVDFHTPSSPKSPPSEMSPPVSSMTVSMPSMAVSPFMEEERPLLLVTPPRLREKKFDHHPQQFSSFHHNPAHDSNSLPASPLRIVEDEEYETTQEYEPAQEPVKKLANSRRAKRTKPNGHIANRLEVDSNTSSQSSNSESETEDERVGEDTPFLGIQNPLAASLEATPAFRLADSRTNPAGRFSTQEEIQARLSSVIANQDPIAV
# [17] = target: T5, PEX19 (prey, CIC format) (human) (UniProt P40855)
# T5 sequence (looked up): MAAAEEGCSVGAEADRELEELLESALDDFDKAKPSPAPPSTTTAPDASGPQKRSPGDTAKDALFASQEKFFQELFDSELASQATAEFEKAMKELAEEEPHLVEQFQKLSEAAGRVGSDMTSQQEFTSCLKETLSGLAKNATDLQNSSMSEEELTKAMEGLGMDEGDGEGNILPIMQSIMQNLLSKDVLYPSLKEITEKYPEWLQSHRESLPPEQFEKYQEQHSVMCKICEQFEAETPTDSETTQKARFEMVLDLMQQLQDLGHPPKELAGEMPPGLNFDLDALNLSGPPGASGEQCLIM
# [18] = target: EZR (prey, CIC format) (human) (UniProt P15311)
# [19] = target: SRC (prey, CIC format) (human) (UniProt P12931)
# [20] = target: T6, NOD1 (prey, CIC format) (human) (UniProt Q9Y239)
# T6 sequence (looked up): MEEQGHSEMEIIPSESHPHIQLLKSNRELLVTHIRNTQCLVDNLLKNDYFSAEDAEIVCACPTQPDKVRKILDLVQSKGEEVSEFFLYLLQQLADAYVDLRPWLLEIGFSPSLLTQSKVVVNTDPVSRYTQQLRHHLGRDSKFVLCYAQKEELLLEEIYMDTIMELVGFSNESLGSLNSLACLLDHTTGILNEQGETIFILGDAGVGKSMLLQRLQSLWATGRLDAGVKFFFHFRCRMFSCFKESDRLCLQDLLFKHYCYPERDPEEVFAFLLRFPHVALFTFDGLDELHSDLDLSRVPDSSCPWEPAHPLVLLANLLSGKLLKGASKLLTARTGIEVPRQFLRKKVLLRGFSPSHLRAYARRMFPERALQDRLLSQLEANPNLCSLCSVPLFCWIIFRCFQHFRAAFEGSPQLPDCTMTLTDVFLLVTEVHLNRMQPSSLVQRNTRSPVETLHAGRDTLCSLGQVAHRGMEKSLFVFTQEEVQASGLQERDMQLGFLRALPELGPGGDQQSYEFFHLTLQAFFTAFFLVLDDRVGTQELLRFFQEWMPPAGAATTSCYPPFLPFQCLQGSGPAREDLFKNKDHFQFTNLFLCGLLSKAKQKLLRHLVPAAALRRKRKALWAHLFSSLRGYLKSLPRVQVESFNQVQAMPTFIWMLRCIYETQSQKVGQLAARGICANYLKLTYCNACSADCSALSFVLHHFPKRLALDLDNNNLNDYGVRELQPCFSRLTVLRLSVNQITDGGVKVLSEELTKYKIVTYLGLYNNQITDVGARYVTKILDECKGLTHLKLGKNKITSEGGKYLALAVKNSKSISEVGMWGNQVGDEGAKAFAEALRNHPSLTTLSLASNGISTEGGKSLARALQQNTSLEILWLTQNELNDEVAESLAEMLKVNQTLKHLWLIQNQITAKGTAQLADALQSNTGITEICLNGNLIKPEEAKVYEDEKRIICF
# [21] = target: RAD23A (prey, CIC format) (human) (UniProt P54725)
# [22] = target: TCL1A (prey, CIC format) (human) (UniProt P56279)
# [23] = target: RPA3 (prey, CIC format) (human) (UniProt P35244)
# [24] = target: GRB2 (prey, CIC format) (human) (UniProt P62993)
# [25] = target: SMAD4 (prey, CIC format) (human) (UniProt Q13485)
# S100A7 (prey, CIC format) (human), sequence (P31151 whole entry): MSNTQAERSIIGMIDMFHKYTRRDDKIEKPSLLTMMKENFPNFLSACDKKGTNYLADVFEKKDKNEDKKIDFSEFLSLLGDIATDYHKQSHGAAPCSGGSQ
# CRADD (prey, CIC format) (human), sequence (P78560 whole entry): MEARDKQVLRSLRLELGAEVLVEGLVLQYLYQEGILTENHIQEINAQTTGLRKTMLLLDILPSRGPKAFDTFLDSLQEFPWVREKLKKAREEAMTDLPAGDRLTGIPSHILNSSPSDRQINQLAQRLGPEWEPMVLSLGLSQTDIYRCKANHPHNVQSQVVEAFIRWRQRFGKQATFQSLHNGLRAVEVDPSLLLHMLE
# UBE2I (prey, CIC format) (human), sequence (P63279 whole entry): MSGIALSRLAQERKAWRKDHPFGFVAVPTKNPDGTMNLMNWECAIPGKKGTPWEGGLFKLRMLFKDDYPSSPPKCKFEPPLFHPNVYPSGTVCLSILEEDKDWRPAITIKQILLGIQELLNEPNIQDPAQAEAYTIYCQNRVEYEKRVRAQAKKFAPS
# CASP2 (bait, IN format), sequence (P42575 whole entry): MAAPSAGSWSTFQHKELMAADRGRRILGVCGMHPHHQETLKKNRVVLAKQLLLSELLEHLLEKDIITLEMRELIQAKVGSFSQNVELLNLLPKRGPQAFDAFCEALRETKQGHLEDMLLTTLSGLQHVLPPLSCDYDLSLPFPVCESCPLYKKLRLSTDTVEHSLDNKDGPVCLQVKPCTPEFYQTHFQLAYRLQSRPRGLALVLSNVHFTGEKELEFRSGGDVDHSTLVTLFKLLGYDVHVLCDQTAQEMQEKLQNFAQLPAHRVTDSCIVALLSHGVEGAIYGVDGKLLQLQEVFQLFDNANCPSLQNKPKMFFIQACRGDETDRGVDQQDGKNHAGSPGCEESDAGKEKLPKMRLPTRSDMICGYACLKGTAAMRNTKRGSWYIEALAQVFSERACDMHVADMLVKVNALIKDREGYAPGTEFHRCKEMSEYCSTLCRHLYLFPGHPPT
# PTK2 (prey, CIC format) (human), sequence (Q05397 whole entry): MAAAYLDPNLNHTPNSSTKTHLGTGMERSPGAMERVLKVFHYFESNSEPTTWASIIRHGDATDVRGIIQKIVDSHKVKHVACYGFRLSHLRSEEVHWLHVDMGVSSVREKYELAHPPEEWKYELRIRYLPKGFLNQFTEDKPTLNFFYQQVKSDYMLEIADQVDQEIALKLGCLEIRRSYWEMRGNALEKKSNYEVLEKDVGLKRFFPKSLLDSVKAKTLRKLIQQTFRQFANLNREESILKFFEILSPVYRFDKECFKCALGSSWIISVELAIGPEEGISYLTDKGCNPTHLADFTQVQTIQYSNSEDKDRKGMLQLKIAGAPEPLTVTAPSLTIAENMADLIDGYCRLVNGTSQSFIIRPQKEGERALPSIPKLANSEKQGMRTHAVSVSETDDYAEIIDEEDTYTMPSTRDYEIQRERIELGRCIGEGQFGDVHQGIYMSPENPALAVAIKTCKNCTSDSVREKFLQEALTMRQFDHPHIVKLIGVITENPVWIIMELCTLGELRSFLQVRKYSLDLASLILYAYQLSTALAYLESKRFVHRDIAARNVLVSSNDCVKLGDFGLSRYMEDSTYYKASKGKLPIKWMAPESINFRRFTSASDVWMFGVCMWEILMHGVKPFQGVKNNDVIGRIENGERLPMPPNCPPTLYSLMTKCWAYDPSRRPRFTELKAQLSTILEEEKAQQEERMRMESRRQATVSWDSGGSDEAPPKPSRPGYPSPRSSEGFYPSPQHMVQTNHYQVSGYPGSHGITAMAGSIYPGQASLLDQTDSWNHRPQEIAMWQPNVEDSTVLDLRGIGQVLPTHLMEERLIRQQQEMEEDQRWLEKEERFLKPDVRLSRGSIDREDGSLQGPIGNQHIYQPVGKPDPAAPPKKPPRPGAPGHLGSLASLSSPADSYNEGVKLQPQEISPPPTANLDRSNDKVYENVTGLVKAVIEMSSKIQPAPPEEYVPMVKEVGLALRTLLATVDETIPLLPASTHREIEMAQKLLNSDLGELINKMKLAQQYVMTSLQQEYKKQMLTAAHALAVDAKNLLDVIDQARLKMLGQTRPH
# LSM2 (prey, CIC format) (human), sequence (Q9Y333 whole entry): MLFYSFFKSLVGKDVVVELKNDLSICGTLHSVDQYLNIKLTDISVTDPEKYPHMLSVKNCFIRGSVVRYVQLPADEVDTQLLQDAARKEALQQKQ
# LGALS3BP (prey, CIC format) (human), sequence (Q08380 19-585 limits assumed): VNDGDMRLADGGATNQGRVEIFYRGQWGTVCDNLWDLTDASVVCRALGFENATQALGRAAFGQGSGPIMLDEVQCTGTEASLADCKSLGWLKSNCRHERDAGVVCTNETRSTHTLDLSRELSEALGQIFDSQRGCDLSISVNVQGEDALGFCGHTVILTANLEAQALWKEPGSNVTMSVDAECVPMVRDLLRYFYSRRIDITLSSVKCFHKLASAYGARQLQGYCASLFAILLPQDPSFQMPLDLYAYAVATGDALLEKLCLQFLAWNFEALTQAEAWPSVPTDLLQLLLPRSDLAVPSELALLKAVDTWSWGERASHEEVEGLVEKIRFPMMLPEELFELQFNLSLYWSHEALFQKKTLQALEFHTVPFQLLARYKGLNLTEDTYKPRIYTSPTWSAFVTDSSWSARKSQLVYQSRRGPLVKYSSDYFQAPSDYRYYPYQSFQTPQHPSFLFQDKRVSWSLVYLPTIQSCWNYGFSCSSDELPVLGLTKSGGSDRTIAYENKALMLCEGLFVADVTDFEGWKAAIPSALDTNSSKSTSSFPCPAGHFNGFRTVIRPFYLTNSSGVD
# GTF2F2 (prey, CIC format) (human), sequence (P13984 whole entry): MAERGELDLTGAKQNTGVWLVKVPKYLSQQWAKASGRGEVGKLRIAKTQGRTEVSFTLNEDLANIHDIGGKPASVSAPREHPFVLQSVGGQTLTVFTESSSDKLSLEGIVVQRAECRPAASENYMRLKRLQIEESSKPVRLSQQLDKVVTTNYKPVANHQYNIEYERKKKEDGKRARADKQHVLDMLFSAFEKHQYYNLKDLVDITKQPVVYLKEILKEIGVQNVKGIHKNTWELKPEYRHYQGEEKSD
# RPA3 (prey, CIC format) (human), sequence (P35244 whole entry): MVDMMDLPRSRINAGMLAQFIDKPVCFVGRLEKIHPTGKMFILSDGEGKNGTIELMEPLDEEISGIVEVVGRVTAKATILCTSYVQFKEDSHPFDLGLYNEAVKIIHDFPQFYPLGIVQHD
# HGS (prey, CIC format) (human), sequence (O14964 whole entry): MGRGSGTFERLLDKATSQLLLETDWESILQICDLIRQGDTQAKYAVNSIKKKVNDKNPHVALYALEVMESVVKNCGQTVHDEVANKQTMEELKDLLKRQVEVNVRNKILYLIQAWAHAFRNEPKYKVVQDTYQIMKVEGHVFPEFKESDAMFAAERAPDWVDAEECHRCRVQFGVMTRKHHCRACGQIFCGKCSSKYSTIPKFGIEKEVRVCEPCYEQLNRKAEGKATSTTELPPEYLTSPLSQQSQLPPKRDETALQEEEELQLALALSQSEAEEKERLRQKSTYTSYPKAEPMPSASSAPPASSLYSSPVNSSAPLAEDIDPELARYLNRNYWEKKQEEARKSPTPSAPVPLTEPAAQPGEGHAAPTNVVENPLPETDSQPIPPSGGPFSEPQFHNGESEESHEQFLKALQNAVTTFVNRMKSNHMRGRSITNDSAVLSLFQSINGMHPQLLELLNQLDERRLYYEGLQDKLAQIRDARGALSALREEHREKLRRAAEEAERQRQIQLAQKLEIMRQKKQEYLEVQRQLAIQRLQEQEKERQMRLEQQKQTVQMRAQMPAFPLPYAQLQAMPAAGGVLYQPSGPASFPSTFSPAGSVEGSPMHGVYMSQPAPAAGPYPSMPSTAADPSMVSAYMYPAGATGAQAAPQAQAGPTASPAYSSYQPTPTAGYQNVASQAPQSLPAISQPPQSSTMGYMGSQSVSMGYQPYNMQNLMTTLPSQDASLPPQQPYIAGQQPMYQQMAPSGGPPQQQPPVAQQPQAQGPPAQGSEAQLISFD
# RAD23A (prey, CIC format) (human), sequence (P54725 whole entry): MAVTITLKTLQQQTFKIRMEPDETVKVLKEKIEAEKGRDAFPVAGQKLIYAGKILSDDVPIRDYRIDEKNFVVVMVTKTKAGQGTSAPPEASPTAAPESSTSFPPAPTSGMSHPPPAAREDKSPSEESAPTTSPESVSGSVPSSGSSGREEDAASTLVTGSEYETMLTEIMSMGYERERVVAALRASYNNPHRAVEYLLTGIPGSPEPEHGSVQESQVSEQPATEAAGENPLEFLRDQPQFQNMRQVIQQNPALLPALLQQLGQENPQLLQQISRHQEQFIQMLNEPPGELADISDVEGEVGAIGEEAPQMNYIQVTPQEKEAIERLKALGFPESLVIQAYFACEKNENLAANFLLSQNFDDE
# EZR (prey, CIC format) (human), sequence (P15311 whole entry): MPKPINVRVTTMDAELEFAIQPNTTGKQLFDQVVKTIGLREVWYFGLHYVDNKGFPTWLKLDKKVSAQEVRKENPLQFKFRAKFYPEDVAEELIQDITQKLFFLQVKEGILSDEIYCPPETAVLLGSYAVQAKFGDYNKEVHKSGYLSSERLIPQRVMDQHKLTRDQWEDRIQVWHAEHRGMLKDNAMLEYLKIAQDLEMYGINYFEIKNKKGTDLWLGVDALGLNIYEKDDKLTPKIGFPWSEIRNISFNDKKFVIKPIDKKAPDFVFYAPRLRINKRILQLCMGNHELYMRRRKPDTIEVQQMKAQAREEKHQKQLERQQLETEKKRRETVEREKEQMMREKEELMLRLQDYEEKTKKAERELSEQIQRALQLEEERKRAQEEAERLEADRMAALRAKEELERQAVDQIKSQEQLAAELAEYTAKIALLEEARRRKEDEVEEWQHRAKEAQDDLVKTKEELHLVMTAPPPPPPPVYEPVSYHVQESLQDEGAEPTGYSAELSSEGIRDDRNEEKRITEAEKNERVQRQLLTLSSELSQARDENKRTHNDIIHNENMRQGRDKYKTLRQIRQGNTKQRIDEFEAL
# TCL1A (prey, CIC format) (human), sequence (P56279 whole entry): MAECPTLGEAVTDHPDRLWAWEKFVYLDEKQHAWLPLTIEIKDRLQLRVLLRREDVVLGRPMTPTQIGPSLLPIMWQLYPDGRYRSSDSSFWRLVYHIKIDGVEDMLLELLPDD
substance,measurement,setting,value
"CASP2 (bait, IN format) (from UniProt P42575 1-452)",PLU mean,[1],2.45
same,PLU mean,[2],0.696
"CD2 (bait, IN format) (from UniProt P06729 25-351) (receptor)",PLU mean,[3],0.972
same,PLU mean,[4],0.299
same,PLU mean,[5],0.253
"CRK (bait, IN format) (from UniProt P46108 1-304)",PLU mean,[6],0.261
same,PLU mean,[7],0.153
"FABP5 (bait, IN format) (from UniProt Q01469 1-135)",PLU mean,[8],0.174
same,PLU mean,[9],0.134
"GRB2 (bait, IN format) (from UniProt P62993 1-217)",PLU mean,[10],0.223
same,PLU mean,[11],0.0588
same,PLU mean,[8],0.741
same,PLU mean,[2],1.39
"LCP2 (bait, IN format) (from UniProt Q13094 1-533)",PLU mean,[1],0.193
same,PLU mean,[12],0.662
same,PLU mean,[2],0.789
"LGALS3 (bait, IN format) (from UniProt P17931 1-250)",PLU mean,[13],0.248
same,PLU mean,[14],0.162
"LSM3 (bait, IN format) (from UniProt P62310 1-102)",PLU mean,[15],0.272
same,PLU mean,[13],0.129
same,PLU mean,[14],3.03
"PEX14 (bait, IN format) (from UniProt O75381 1-377)",PLU mean,[16],0.31
same,PLU mean,[17],2.17
"PRKAR2A (bait, IN format) (from UniProt P13861 1-404)",PLU mean,[18],0.123
same,PLU mean,[19],0.186
"PSMD4 (bait, IN format) (from UniProt P55036 1-377)",PLU mean,[20],0.845
same,PLU mean,[21],0.919
same,PLU mean,[22],0.108
"RPA2 (bait, IN format) (from UniProt P15927 1-270)",PLU mean,[23],2.72
same,PLU mean,[9],0.0606
"SMAD1 (bait, IN format) (from UniProt Q15797 1-465)",PLU mean,[24],0.151
same,PLU mean,[25],0.182
"TP53 (bait, IN format) (from UniProt P04637 1-393)",PLU mean,[7],0.194
